Source: patent publication US20070066547
pIC50: −log10 of the molar value.

Columns and labels:
[1] = tested on: HIV-1 Ba-L virus (gp120) (Human immunodeficiency virus 1 (Ba-L)); assay: cell_activity; conditions: 2'-F pyrimidines (U, C)
[2] = tested on: gp120 envelope glycoprotein, HIV-1 Ba-L (SU) (Human immunodeficiency virus 1 (Ba-L)); assay: competition; conditions: 2'-F pyrimidines (U, C); at highest aptamer concentration, no CD4; 48d inhibited at nM with CD4; CG10 and sCD4 binding not inhibited
[3] = tested on: HIV-1 Ba-L break-through clones after B4 selection (gp120) (Human immunodeficiency virus 1 (Ba-L)); assay: cell_activity; conditions: 2'-F pyrimidines (U, C); 100 nM aptamer; all four break-through clones neutralised

AUGACGUACCCGCACAAGCCACCACAAGUCUUAAUCGCGCCACCCUUGC [B84]
activity (log10 IU/ml reduction) ([1]; 100 nM aptamer, PBMC TCID50): > 4

GAGCGGUUAAGGGAGAUUUAGGCAGCAGCUUGGACAGUGUAUCGGCUGAG [B4]
binding signal (% inhibition of mAb 17b binding) [2]: 50
activity (log10 IU/ml reduction) [3]: > 4
pIC50 ([1]; neutralisation in human PBMC, about 5 log10 at 100 nM): > 9.00
